Columns and labels:
Assay in all cases: EMSA
Conditions in all cases: EMSA: 0.4 nM biotinylated probe, 10 mM Tris-HCl pH 7.5, 1 mM DTT, 10 mM MgCl2, 400 mM KCl, 0.05% NP-40, 70C 10 min; 5% PAGE, 0.5x TBE
[1] = biological target: T1, TK1489 protein (Thermococcus kodakarensis KOD1) (UniProt Q5JJD9)
T1 sequence: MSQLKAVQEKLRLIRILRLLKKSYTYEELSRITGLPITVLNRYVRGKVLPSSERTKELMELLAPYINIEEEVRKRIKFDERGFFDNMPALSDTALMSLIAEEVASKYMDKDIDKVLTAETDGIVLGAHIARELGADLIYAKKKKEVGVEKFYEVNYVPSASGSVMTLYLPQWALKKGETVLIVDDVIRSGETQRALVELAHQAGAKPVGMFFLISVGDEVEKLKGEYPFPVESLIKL

[2] = biological target: T2, Tar (TK0271 protein) (Thermococcus kodakarensis KOD1) (UniProt Q5JFW7)
T2 sequence: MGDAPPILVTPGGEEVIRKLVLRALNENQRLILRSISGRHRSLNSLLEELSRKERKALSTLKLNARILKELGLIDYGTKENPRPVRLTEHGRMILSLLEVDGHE

[3] = biological target: T3, TK1881 protein (Thermococcus kodakarensis KOD1) (UniProt Q5JEN6)
T3 sequence: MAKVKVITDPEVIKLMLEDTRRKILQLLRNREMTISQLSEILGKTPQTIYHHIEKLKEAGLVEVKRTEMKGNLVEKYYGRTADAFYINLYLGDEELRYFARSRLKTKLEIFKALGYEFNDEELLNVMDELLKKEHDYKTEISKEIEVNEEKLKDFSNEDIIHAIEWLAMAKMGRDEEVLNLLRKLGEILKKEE

[4] = biological target: T4, TK2190 protein (Thermococcus kodakarensis KOD1) (UniProt Q5JHK1)
T4 sequence: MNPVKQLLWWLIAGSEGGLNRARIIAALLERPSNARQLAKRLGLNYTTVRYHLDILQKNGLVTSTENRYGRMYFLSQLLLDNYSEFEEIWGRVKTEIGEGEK

[5] = biological target: T5, TK1272 protein (Thermococcus kodakarensis KOD1) (UniProt Q5JGN9)
T5 sequence: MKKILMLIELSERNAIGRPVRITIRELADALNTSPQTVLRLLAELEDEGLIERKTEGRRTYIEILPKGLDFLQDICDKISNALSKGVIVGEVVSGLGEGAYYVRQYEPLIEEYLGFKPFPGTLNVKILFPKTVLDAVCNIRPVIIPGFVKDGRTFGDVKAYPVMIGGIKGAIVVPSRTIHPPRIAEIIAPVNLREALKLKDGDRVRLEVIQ

[6] = biological target: T6, TK2229 protein (Thermococcus kodakarensis KOD1) (UniProt Q5JHP9)
T6 sequence: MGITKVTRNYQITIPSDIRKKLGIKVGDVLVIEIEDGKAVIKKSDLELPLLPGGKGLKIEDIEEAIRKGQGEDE

[7] = biological target: T7, TK0142 protein (Thermococcus kodakarensis KOD1) (UniProt Q5JFH4)
T7 sequence: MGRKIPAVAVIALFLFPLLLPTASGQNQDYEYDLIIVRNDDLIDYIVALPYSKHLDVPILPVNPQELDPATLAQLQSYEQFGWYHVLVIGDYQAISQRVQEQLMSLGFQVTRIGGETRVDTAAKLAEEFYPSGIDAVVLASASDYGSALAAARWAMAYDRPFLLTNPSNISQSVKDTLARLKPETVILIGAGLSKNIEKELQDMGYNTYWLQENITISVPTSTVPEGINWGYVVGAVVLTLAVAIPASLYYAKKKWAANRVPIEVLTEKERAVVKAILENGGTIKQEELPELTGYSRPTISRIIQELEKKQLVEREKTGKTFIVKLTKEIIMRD

[8] = biological target: T8, TK1339 protein (Thermococcus kodakarensis KOD1) (UniProt Q5JGU9)
T8 sequence: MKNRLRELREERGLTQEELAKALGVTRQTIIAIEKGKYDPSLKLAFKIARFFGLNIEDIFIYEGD

[9] = biological target: T9, TK0063 protein (Thermococcus kodakarensis KOD1) (UniProt Q5JEG2)
T9 sequence: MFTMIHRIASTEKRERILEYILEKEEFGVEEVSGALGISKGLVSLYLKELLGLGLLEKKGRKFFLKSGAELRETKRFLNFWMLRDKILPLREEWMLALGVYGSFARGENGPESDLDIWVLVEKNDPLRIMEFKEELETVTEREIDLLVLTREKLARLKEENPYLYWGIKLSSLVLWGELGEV

[10] = biological target: T10, TK0169 protein (Thermococcus kodakarensis KOD1) (UniProt Q5JFL2)
T10 sequence: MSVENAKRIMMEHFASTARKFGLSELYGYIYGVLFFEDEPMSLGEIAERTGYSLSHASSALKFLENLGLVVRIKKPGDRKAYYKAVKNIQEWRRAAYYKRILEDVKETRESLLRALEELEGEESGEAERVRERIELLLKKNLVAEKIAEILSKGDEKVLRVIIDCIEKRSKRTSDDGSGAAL

[11] = biological target: T11, TK1955 protein (Thermococcus kodakarensis KOD1) (UniProt Q5JDN7)
T11 sequence: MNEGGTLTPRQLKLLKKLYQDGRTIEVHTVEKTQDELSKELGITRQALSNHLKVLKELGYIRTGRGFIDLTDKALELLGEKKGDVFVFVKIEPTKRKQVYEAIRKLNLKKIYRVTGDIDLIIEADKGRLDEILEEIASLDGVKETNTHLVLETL

[12] = biological target: T12, TK0271 protein (IVT) (Thermococcus kodakarensis KOD1) (UniProt Q5JFW7)
T12 sequence: T2 sequence

[13] = biological target: T13, TK0888 protein (Thermococcus kodakarensis KOD1) (UniProt Q5JI32)
T13 sequence: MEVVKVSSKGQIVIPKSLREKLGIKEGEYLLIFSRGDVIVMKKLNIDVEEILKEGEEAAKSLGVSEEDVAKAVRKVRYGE

[14] = biological target: T14, TK1227 protein (IVT) (Thermococcus kodakarensis KOD1) (UniProt Q5JGI5)
T14 sequence: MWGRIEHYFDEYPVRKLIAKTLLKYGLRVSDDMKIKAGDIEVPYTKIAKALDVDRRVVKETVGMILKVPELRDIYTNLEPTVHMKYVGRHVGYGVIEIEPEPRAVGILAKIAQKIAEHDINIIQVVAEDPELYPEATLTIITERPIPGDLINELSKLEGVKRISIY

[15] = biological target: T15, TK1210 protein (Thermococcus kodakarensis KOD1) (UniProt Q5JGG7)
T15 sequence: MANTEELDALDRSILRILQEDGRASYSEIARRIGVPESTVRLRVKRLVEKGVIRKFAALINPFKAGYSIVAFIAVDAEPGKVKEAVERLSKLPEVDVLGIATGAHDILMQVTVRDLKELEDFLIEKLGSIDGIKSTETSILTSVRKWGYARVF

[16] = biological target: T16, TkTrpY (TK1227 protein) (Thermococcus kodakarensis KOD1) (UniProt Q5JGI5)
T16 sequence: T14 sequence

GACTTCGGCTTTCTGATGGTCGGAAGGGACGTGGAAAATGCGAACGAAGCGATAAAAATGTTTTTGGAGGAGGTTAAACGAGGGCCTTAACGCCCTCTCGGTCTTTTTAGCTACTCCCTTGGACACCTCAGCATGTCCAAAGCCTTATATCCCAACTCCCCCTTTTGACACCGGTGAGTTCAAATGGGTGATGGTTTTTGGATTAAGC (double strand) [trp promoter (TK0252)]
binding [1]: binds
Kd [2]: 5 nM
binding [2]: binds
binding [3]: binds
binding [4]: binds
binding [5]: binds
binding [6]: binds
binding [7]: binds
binding [8]: binds
binding [9]: binds
binding [10]: binds
binding [11]: binds
binding [12]: binds
binding [13]: binds
binding [14]: binds
binding [15]: binds

trp promoter (TK0252)
Kd [2]: 5 nM

GACCACCCGCTCAGAAAAGGACGTCGTAAGGACAAGTACACCGTTATTCTCTACCAGGCAACCGTACGAACTATTCAAAGTTCACCCTTTGAAGAAAGGCAAACATTTTTGTTTAACAAAAACACTTTTGTTAGCGCAAACTATTTAAACAACCGTTGTATATCACAGATGGTGATATATATGGTTGAGC (double strand) [TK0705 (GAPN) promoter]
binding [16]: binds more weakly

TGCGGGCCATCATCATCACCCAATACCTTTGATGTGGGTAAAACATGGGGAGGTTATATACTTTATGTCCCTCAGGGACTTGGCAATGAAACTTTTAAGAATTTCGTCCGATTCTAGAATCAAACTGTAAAAGACCCATATTTTACAATAGCAGCCAGGAAAGAATATTAAACAGAAAATAAGGGATTAAATGCCGTTATCCCCA (double strand) [TK1899 (radA) promoter]
binding [2]: binds more weakly

GCTACTTCCATCCTCCTCTGGAGAAGCTGGAGAATTTCCCGGTCAATCTCGTCTATCCTTCTCCTCAGAATGGCAAGTTCTACAAGATCAGGACTCGATATTGGCGGGACATCACCGTCACCGTTTTGAGCTTGAAGTTCGAAGATTTAACCTTTTGGACAGGTTCACCTAACCATCCCCTCCCAGGCCCTCCTCCTCAGGAG (double strand) [tyr-phe promoter (TK0261)]
Kd [2]: binds

GGACGCCTGTTTGTCAAATCGACAAAAATACGCCAGTTTTCACACTGATTTTTAACAGATTGATGAGATGGACGTCCTTTTTTGGGAATTGGACAGGCAAACCTGGCGAATAGTTTAAATAGGGTTGCTGATTCATCCGTCTCCGGTGATCGGTGATGTCCCGCCAATTTATGAAGTCTTCAAACCAGGTGATGTCCCGCCAATGGGTGATGC (double strand) [aro promoter (TK0271)]
Kd [2]: binds

From PMC6737238
